The record followed here is article PMC5099943, “Recombinant L-asparaginase 1 from Saccharomyces cerevisiae: an allosteric enzyme with antineoplastic activity” (Scientific Reports, 2016).

Usually Km stands for the substrate concentration at which the rate is half of its maximum. For orientation: Vmax means the rate approached at saturating substrate. In general, kcat refers to the number of substrate molecules converted per active site and unit of time at saturation. The term kcat/Km denotes the second-order rate constant that governs catalysis at low substrate concentration.

Substrate in data set [1]: NC(=O)C[C@H](N)C(=O)O
Briefly: purified protein. Particulars: 50 mM Tris-HCl pH 8.0, 37 °C, nH 1.1 ± 0.1.

Substrate in data set [2]: NC(=O)C[C@H](N)C(=O)O
The experiment in a line: purified protein. It is filed as biochemical, Saccharomyces cerevisiae. Particulars: 50 mM Tris-HCl pH 8.0, 37 °C, no L-glutamine, sigmoidal, nH 2.2 ± 0.3.

B1: EcASNase2 (L-ASNase type II from Escherichia coli, commercial) (Escherichia coli K-12) (protein)
chain: LPNITILATGGTIAGGGDSATKSNYTVGKVGVENLVNAVPQLKDIANVKGEQVVNIGSQDMNDNVWLTLAKKINTDCDKTDGFVITHGTDTMEETAYFLDLTVKCDKPVVMVGAMRPSTSMSADGPFNLYNAVVTAADKASANRGVLVVMNDTVLDGRDVTKTNTTDVATFKSVNYGPLGYIHNGKIDYQRTPARKHTSDTPFDVSKLNELPKVGIVYNYANASDLPAKALVDAGYDGIVSAGVGNGNLYKSVFDTLATAAKTGTAVVRSSRVPTGATTQDAEVDDAKYGFVASGTLNPQKARVLLQLALTQTKDPQQIQQIFNQY
For B1, in the data set “purified protein [1]”, the Km was 23 ± 5 µM, the Vmax is 0.032 µmol/min, the catalytic constant (kcat) stood at 134 s⁻¹ and the kcat/Km stood at 5.8e+06 M⁻¹ s⁻¹.

B2: ScASNase1 (L-asparaginase 1) (Saccharomyces cerevisiae S288C) (protein)
chain: LPRIKILGTGGTIASKAIDSSQTAGYHVDLTIQDLLDAIPDISKVCDIEYEQLCNVDSKDINEDILYKIYKGVSESLQAFDGIVITHGTDTLSETAFFIESTIDAGDVPIVFVGSMRPSTSVSADGPMNLYQAICIASNPKSRGRGVLVSLNDQISSGYYITKTNANSLDSFNVRQGYLGNFVNNEIHYYYPPVKPQGCHKFKLRVDGKHFKLPEVCILYAHQAFPPAIVNLVADKYDGIVLATMGAGSLPEEVNETCMKLSLPIVYSKRSMDGMVPIANVPKKGSKEDNLIASGYLSPEKSRILLQLCLAGNYTLEEIKHVFTGVYGG
With B2, in the data set “purified protein [2]”, the K0.5 was found to be 75 ± 27 µM, the Vmax was determined as 0.042 µmol/min and the kcat came out at 217 ± 14 s⁻¹.
